Test results: PMC10099132, “Sequence and Structural Motifs Controlling the Broad Substrate Specificity of the Mycobacterial Hormone-Sensitive Lipase LipN” (ACS Omega, 2023)

What was measured:
[1] = target: T1, MmLipN (LipN from M. marinum) (Mycobacterium marinum, UniProt B2HIK1); test: p-nitrophenol release at […] nm, Michaelis-Menten fit; assay type: biochemical; conditions: PBS, acetylated BSA 0.1 mg/mL, acetonitrile, 36 nM enzyme, 25 °C
T1 construct: E. coli LOBSTR (DE3); Ni-NTA
T1 sequence (B2HIK1 1-372): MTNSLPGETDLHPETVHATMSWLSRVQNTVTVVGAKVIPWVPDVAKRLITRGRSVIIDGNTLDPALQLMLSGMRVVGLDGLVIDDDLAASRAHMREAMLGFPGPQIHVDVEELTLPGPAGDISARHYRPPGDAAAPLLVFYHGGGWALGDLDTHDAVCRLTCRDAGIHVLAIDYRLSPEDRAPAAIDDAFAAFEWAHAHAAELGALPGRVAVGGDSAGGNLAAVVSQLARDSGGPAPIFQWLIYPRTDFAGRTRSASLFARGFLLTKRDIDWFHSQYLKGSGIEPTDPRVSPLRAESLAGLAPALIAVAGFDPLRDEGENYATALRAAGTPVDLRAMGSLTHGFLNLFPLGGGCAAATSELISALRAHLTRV

[2] = test system: CC(=O)OCOc1ccc2c(c1)Oc1cc(OCOC(C)=O)ccc1C21OC(=O)c2ccccc21; test: purified protein, by the assay type; set-up: fluorogenic ester hydrolysis, fluorescein release, Michaelis-Menten fit of initial rates
Experimental: (§1) The enzyme kinetic activity of LipN was assayed via the hydrolysis of the fluorogenic substrates (Figure 1) in accordance with past kinetic analysis of mycobacterial serine hydrolases.[37],[38],[40],[66],[67] Kinetic assays were run in triplicate on black 96-well plates in a Synergy H1 Hybrid Reader (BioTek). Fluorogenic ester substrates (10 mM in DMSO) were diluted to a starting concentration of 100 μM in PBS containing acetylated BSA (Sigma; 0.1 mg/mL). Eight serial dilutions (1:1; 120 μL into 240 μL total volume) of each substrate were made using PBS–BSA. Fluorogenic substrate dilutions (95 μL) were then transferred to opaque 96-well microplate (Corning, Lowell, MA). Reactions were initiated by quickly adding enzyme (5 μL, 3.0 nM final concentration) to each assay well, mixed, and the fluorescence counts measured every 26–30 s for 4.5 min with a BioTek H1 Synergy multimode plate reader (Biotek Instruments; Winooski, VT) at ambient temperature. The instrument measured relative fluorescence through excitation at λ = 485 nm and emission at λ = 520 nm. The fluorescence change was converted to molar concentrations using a fluorescein standard curve (300–2.3 nM), whose fluorescence was measured simultaneously. The initial rates of the enzyme-catalyzed reactions were measured in triplicate and plotted versus fluorogenic substrate concentration. […] (A) Activation of fluorogenic ester substrates by MmLipN. Each of the substrates is composed of diacyloxymethyl ether fluorescein with varying R-groups. The differing R-groups have been organized into classes and colored based on chemical functionality. All of the substrates were synthesized as described previously.[38],[43] Substrates 6, 10–11, 14–15, 20, 23–30, and 33 were newly synthesized for this characterization of MmLipN. Detailed synthetic characterization is provided in the Supporting Information. (B) Global comparison of the catalytic specificity (kcat/KM) of MmLipN against each of the 33 substrates with ester classes labeled. Catalytic efficiency values (kcat/Km) are given ± SD based on at least three independent kinetic replicates. (C, D) Kinetic activity of MmLipN against high-activity ester substrates 1 (black circles), 7 (blue squares), and 20 (red diamonds) and low-activity ester substrates 12 (green circles), 16 (red squares), 27 (purple diamonds), and 31 (orange squares). Low- and high-activity substrates display classic Michaelis–Menten kinetics with MmLipN and activity above background hydrolysis rates. Traces colored based on ester classification from (A, B). All measurements were completed in at least triplicate and shown ± SD.

[3] = test system: CS(=O)(=O)C1(C(=O)OCOc2ccc3c(c2)Oc2cc(OCOC(=O)C4(S(C)(=O)=O)CC4)ccc2C32OC(=O)c3ccccc32)CC1; test: purified protein, by the assay type; set-up: fluorogenic ester hydrolysis, fluorescein release, Michaelis-Menten fit of initial rates
Experimental: as §1

[4] = test system: O=C(OCOc1ccc2c(c1)Oc1cc(OCOC(=O)c3ccco3)ccc1C21OC(=O)c2ccccc21)c1ccco1; test: purified protein, by the assay type; set-up: fluorogenic ester hydrolysis, fluorescein release, Michaelis-Menten fit of initial rates
Experimental: as §1

[5] = test system: O=C1OC2(c3ccc(OCOC(=O)C4(C(F)(F)F)CC4)cc3Oc3cc(OCOC(=O)C4(C(F)(F)F)CC4)ccc32)c2ccccc21; test: purified protein, by the assay type; set-up: fluorogenic ester hydrolysis, fluorescein release, Michaelis-Menten fit of initial rates
Experimental: as §1

[6] = test system: O=C1OC2(c3ccc(OCOC(=O)C4(O)CC4)cc3Oc3cc(OCOC(=O)C4(O)CC4)ccc32)c2ccccc21; test: purified protein, by the assay type; set-up: fluorogenic ester hydrolysis, fluorescein release, Michaelis-Menten fit of initial rates
Experimental: as §1

[7] = test system: O=C1OC2(c3ccc(OCOC(=O)C4CCCC4)cc3Oc3cc(OCOC(=O)C4CCCC4)ccc32)c2ccccc21; test: purified protein, by the assay type; set-up: fluorogenic ester hydrolysis, fluorescein release, Michaelis-Menten fit of initial rates
Experimental: as §1

[8] = test system: CCCC(=O)Oc1ccc([N+](=O)[O-])cc1; test: purified protein, by the assay type; set-up: p-nitrophenyl ester hydrolysis, absorbance at 412 nm, Michaelis-Menten fit
From the text: (A) Classic p-nitrophenyl ester substrates were used as conformation for fluorogenic substrate measurements (Figure 1). (B) Catalytic efficiency comparison of MmLipN against p-nitrophenyl substrates. Catalytic efficiency values (kcat/Km) are given ± SD. (C, D) Kinetic activity of MmLipN against (C) short alkyl ester substrates: p-nitrophenyl acetate (C2) and p-nitrophenyl butyrate (C4) and (D) longer alkyl ester substrates: p-nitrophenyl valerate ([…]), p-nitrophenyl octonoate (C8), and p-nitrophenyl myristate (C14). Data points were fitted to the Michaelis–Menten equation and are shown ± SD.

CCCCC(=O)Oc1ccc([N+](=O)[O-])cc1 [p-nitrophenyl valerate]
KM [1]: MmLipN was measured against p-nitrophenyl acetate, p-nitrophenyl butyrate, p-nitrophenyl valerate

CC(=O)Oc1ccc([N+](=O)[O-])cc1 [p-nitrophenyl acetate]
KM [1]: The enzymatic activity of MmLipN was measured against p-nitrophenyl acetate

MmLipN (LipN from M. marinum) (Mycobacterium marinum M)
Km [2]: 0.22 ± 0.12 µM | kcat [2]: 0.1 ± 0.038 s⁻¹ | kcat/Km [2]: 460000 ± 150000 M⁻¹ s⁻¹ | Km [3]: 0.084 ± 0.15 µM | kcat [3]: 1.4e-05 ± 5e-05 s⁻¹ | kcat/Km [3]: 170 ± 330 M⁻¹ s⁻¹ | Km [4]: 0.84 ± 0.60 µM | kcat [4]: 0.003 ± 0.0048 s⁻¹ | kcat/Km [4]: 3500 ± 3100 M⁻¹ s⁻¹ | Km [5]: 0.37 ± 0.13 µM | kcat [5]: 3.7e-05 ± 3e-05 s⁻¹ | kcat/Km [5]: 98 ± 43 M⁻¹ s⁻¹ | Km [6]: 0.40 ± 0.10 µM | kcat [6]: 0.0029 ± 0.0016 s⁻¹ | kcat/Km [6]: 7400 ± 2200 M⁻¹ s⁻¹ | Km [7]: 33.9 ± 7.71 µM | kcat [7]: 0.0012 ± 0.0001 s⁻¹ | kcat/Km [7]: 29 ± 4 M⁻¹ s⁻¹ | Km [8]: 20 ± 9 µM | kcat [8]: 190 ± 10 s⁻¹ | kcat/Km [8]: 9.3e+06 ± 2.1e+06 M⁻¹ s⁻¹

CCCC(=O)Oc1ccc([N+](=O)[O-])cc1 [p-nitrophenyl butyrate]
KM [1]: LipN showed highest activity against p-nitrophenyl butyrate
